We go through 94 variants from the supplement of paper PMC10567573.

The chains are these.
B1: DULLARD (parent)
chain: LVVFTASMEIYGSAVADKLDNSRS
B2: ALDH8A1 (parent)
chain: RVAKKLQSGLVWTNCWLIRELNLP
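Note: lentivirally expressed fusions sorted by FACS into six bins by GFP to DsRed ratio, PSI derived from sequencing read proportions per bin multiplied by bin number.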

The variants in one data set derive from B1. Put plainly: protein stability index of a GFP-peptide fusion (GPS, HEK-293T) (PSI 1-6); higher = more stable. The note with it: c terminus: a fixed tail appended.
In the case of LVVFTASMPIYGSAVADKLDNSRS [E9P], the protein stability index was determined as 3.01.
On the same count and under the same terms, under LVVFTASMEIYGSAVADKLDASRS [N21A] stands 2.08; under LVVFTASMEIYGSAVADKLDPSRS [N21P], 3; under LVVFTASMEIYGSAVADKLDGSRS [N21G], 1.8.
Same read-out and setting: under LVVFTASMEIYGSAVADKLDVSRS [N21V] stands 1.5; under LVVFTASMEIYGSAVADKLDRSRS [N21R], 2.68; under LVVFTASMEIYGSAVADKLDKSRS [N21K], 3.06.
Same read-out and setting: under LVVFTASMEIYGSAVADKLDSSRS [N21S] stands 4.01.
For LVVFTASMEIYGSAVADKLDTSRS [N21T], the protein stability index came to 2.67.
The same measure, in the same setting: under LVVFTASMEIYGSAVADKLDDSRS [N21D] stands 2.47; under LVVFTASMEIYGSAVADDLDNSRS [K18D], 2.94; under LVVFTASMEIYGSAVADMLDNSRS [K18M], 2.11.
Take LVVFTASMEIYGSAVADVLDNSRS [K18V]: the protein stability index came out at 2.79.
On the same count and under the same terms, under LVVFTASMEIYGSAVADGLDNSRS [K18G] stands 1.99; under LVVFTASMEIYGSAVADQLDNSRS [K18Q], 2.49.
Regarding LVVFTASMEIYGSAVADNLDNSRS [K18N], the protein stability index turned out to be 2.74.
The same measure, in the same setting: under LVVFTASMEIYGSAVADILDNSRS [K18I] stands 4.09; under LVVFTASMEIYGSAVADHLDNSRS [K18H], 1.88; under LVVFTASMEIYGSAVADYLDNSRS [K18Y], 1.55.
Consider LVVFTASMEIYGSAVADLLDNSRS [K18L], for which the protein stability index is 2.77.
Same read-out and setting: under LVVFTASMEIYGSAVDDKLDNSRS [A16D] stands 3.11; under LVVFTASMEIYGSAVIDKLDNSRS [A16I], 2.93; under LVVFTASMEIYGSAVEDKLDNSRS [A16E], 2.34.
Same read-out and setting: under LVVFTASMEIYGSAVQDKLDNSRS [A16Q] stands 2.02.
Take LVVFTASMEIYGSAVFDKLDNSRS [A16F]: the protein stability index was found to be 4.14.
Still for that read-out and setting: under LVVFTASMEIYGSAVRDKLDNSRS [A16R] stands 3.75; under LVVFTASMEIYGSAVNDKLDNSRS [A16N], 1.46; under LVVFTASMEIYGSAVPDKLDNSRS [A16P], 3.45.
Still for that read-out and setting: under LVVFTASMEIYGSAVHDKLDNSRS [A16H] stands 3.11; under LVVFTASMEIYGSAVKDKLDNSRS [A16K], 2.89.
Same read-out and setting: under LVVFTASMEIYVSAVADKLDNSRS [G12V] stands 3.44; under LVVFTASMEIYQSAVADKLDNSRS [G12Q], 1.85.
Turning to LVVFTASMEIYTSAVADKLDNSRS [G12T], the protein stability index came to 2.86.
Take LVVFTASMEIYFSAVADKLDNSRS [G12F]: the protein stability index was 2.79.
As for LVVFTASMEIYESAVADKLDNSRS [G12E], the protein stability index is 1.45.
Still for that read-out and setting: under LVVFTASMEIYPSAVADKLDNSRS [G12P] stands 2.37; under LVVFTASMEIYLSAVADKLDNSRS [G12L], 2.98; under LVVFTASMEIYWSAVADKLDNSRS [G12W], 2.26.
As for LVVFTASMEIYGSQVADKLDNSRS [A14Q], the protein stability index stood at 1.99.
As for LVVFTASMEIYGSRVADKLDNSRS [A14R], the protein stability index was 4.28.
Regarding LVVFTASMEIYGSCVADKLDNSRS [A14C], the protein stability index amounted to 2.02.
On the same count and under the same terms, under LVVFTASMEIYGSVVADKLDNSRS [A14V] stands 1.69; under LVVFTASMEIYGSTVADKLDNSRS [A14T], 3.78.
On the same count and under the same terms, under LVVFTASMEIYGSNVADKLDNSRS [A14N] stands 2.84; under LVVFTASMEIYGSDVADKLDNSRS [A14D], 1.19; under LVVFTASMEIYGSEVADKLDNSRS [A14E], 1.04.
For the variant LVVFTASMEIYGSSVADKLDNSRS [A14S], the protein stability index came out at 2.32.
Same read-out and setting: under LVVFTASMEIYGSPVADKLDNSRS [A14P] stands 1.73; under LVVFTASMEFYGSAVADKLDNSRS [I10F], 2.94.
Same read-out and setting: under LVVFTASMEYYGSAVADKLDNSRS [I10Y] stands 1.92; under LVVFTASMESYGSAVADKLDNSRS [I10S], 1.05.
Still for that read-out and setting: under LVVFTASMEHYGSAVADKLDNSRS [I10H] stands 1.44.
As to LVVFTASMEEYGSAVADKLDNSRS [I10E], the protein stability index worked out at 1.5.
LVVFTASMEMYGSAVADKLDNSRS [I10M]: the protein stability index is 1.28.
LVVFTASMEVYGSAVADKLDNSRS [I10V]: the protein stability index was determined as 2.24.
With LVVFTASMETYGSAVADKLDNSRS [I10T], the protein stability index stood at 1.87.
As for LVVFTASMENYGSAVADKLDNSRS [I10N], the protein stability index is 1.98.
Regarding LVVFTASMECYGSAVADKLDNSRS [I10C], the protein stability index stood at 1.75.
The same measure, in the same setting: under LVVFTASMEKYGSAVADKLDNSRS [I10K] stands 2.05; under LVVFTASMEPYGSAVADKLDNSRS [I10P], 2.16.
Turning to LVVFTASMEAYGSAVADKLDNSRS [I10A], the protein stability index worked out at 1.05.
Regarding LVVFTASMEQYGSAVADKLDNSRS [I10Q], the protein stability index came out at 1.62.
Take LVVFTASMELYGSAVADKLDNSRS [I10L]: the protein stability index stood at 1.34.
In the case of LVVFTASMEIYGSAVADKLDNSQS [R23Q], the protein stability index stood at 1.86.
Same read-out and setting: under LVVFTASMEIYGSAVADKLDNSHS [R23H] stands 2.77; under LVVFTASMEIYGSAVADKLDNSGS [R23G], 1.66; under LVVFTASMEIYGSAVADKLDNSCS [R23C], 2.03.
Still for that read-out and setting: under LVVFTASMEIYGSAVADKLDNSDS [R23D] stands 1.75; under LVVFTASMEIYGSAVADKLDNSTS [R23T], 2.68.
Still for that read-out and setting: under LVVFTASMEIYGSAVADKLDNSPS [R23P] stands 2.61; under LVVFTASMEIYGSAVADKLDNSES [R23E], 2.94; under LVVFTASMEIYGSAVADKLDNSFS [R23F], 2.67.
For LVVFTASMEIYGSAVADKLDNSKS [R23K], the protein stability index was 1.71.
For LVVFTASMEIYGSAVADKLDNSVS [R23V], the protein stability index turned out to be 2.42.
On the same count and under the same terms, under LVVFTASMEIYGSAVADKLDNSSS [R23S] stands 2.05; under LVVFTASMEIYGSAVALKLDNSRS [D17L], 3.58; under LVVFTASMEIYGSAVARKLDNSRS [D17R], 2.48.
For LVVFTASMEIYGSAVAKKLDNSRS [D17K], the protein stability index came to 2.26.
Take LVVFTASMEIYGSAVAVKLDNSRS [D17V]: the protein stability index was determined as 1.97.
As to LVVFTASMEIYGSAVAYKLDNSRS [D17Y], the protein stability index was determined as 2.6.
On the same count and under the same terms, under LVVFTASMEIYGSAVAHKLDNSRS [D17H] stands 3.

A further data set covers variants of B2. The description is as above. The following applies: c terminus: a fixed tail appended.
RVAKKLQSGLVWTNCWFIRELNLP [L17F]: the protein stability index amounted to 2.6.
As for RVAKQLQSGLVWTNCWLIRELNLP [K5Q], the protein stability index stood at 1.34.
Still for that read-out and setting: under RVAKKLQSGLVWTNCWLSRELNLP [I18S] stands 3.62; under RVAKKLQSGLVWTNCWLNRELNLP [I18N], 2.46.
For the variant RVAKKLQSGLVWTNCWLMRELNLP [I18M], the protein stability index worked out at 2.47.
The same measure, in the same setting: under RVAKKLQSGLVWTNLWLIRELNLP [C15L] stands 2.64.
For the variant NVAKKLQSGLVWTNCWLIRELNLP [R1N], the protein stability index was determined as 3.5.
Still for that read-out and setting: under HVAKKLQSGLVWTNCWLIRELNLP [R1H] stands 2.09.
VVAKKLQSGLVWTNCWLIRELNLP [R1V]: the protein stability index was 2.44.
RVALKLQSGLVWTNCWLIRELNLP [K4L]: the protein stability index turned out to be 1.98.
Regarding RVEKKLQSGLVWTNCWLIRELNLP [A3E], the protein stability index amounted to 3.61.
Regarding RVAKKLQSGLVWTNCMLIRELNLP [W16M], the protein stability index stood at 3.3.
On the same count and under the same terms, under RVAKKLPSGLVWTNCWLIRELNLP [Q7P] stands 2.97.
